Columns and labels:
cynomolgus CD47 [1] = assay: SPR; assay 1
human CD47 [2] = molecular target: human CD47 (UniProt Q08722); assay: SPR; assay 1
cynomolgus CD47 [3] = assay: SPR; average
human CD47 [4] = molecular target: human CD47 (UniProt Q08722); assay: SPR; average
cynomolgus CD47 [5] = assay: SPR; assay 2
human CD47 [6] = molecular target: human CD47 (UniProt Q08722); assay: SPR; assay 2

Chain of cynomolgus CD47 (Q08722 other isoform, or with tags, fused parts or gaps): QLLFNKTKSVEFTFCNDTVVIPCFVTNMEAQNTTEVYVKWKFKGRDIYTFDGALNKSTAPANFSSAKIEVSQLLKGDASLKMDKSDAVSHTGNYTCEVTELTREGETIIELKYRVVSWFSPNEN
Chain of human CD47 (Q08722 19-142): as the sequence (Q08722 other isoform, or with tags, fused parts or gaps) above, with A59V, A61T, N62D counted along it

Kd (cynomolgus CD47 [1]): 12.1 pM
Kd (human CD47 [2]): 14.3 pM
Kd (cynomolgus CD47 [3]): 10 pM
Kd (human CD47 [4]): 8 pM
Kd (cynomolgus CD47 [5]): 7.24 pM
Kd (human CD47 [6]): 2.02 pM
Substance: Hu5F9-G4

Source: patent US20220289845A1
